Test results from patent US7241737B2, “Urotensin-II agonists and antagonists” (priority 2000, dated 2007).
Entries after “also recorded” stand apart in the source; their conditions may differ. Bridge positions count the residues as written; N and C are the ends. Ends that are not written are not given here.

Legend:
U-II receptors = target: T1, U-II receptors (Rattus norvegicus, UniProt P49684); assay: Binding to U-II receptors (rat aorta tissue)
T1 construct: from tissue; host or cells: rat thoracic aorta (circular strips / rings)
T1 sequence (P49684 1-386): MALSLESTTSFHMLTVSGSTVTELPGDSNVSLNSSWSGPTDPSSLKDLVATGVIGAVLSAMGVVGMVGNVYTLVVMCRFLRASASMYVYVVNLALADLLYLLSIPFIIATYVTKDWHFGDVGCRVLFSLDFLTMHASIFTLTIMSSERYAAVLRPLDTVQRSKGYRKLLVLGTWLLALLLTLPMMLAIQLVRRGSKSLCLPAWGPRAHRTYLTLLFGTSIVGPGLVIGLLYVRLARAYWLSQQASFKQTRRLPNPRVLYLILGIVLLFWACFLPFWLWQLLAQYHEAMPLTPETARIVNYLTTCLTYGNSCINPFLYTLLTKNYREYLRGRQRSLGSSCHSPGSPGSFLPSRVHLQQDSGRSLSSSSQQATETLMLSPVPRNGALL

rat aorta contraction = assay: Peptide-induced contraction of rat aorta rings (agonist activity)
Protocol: Male Sprague-Dawley rats (250-350 g), which had been quarantined for 5-7 days prior to the experiments, were sacrificed by decapitation (experiments were approved by the Advisory Committee For Animal Resources, Tulane University School of Medicine). The thoracic aorta was dissected, freed from connective tissue, and cut into rings of about 1.5 mm in width. The rings were suspended in a 15 ml organ bath containing high potassium Kreb's solution (9.15 g/L potassium chloride, 2.1 g/L sodium bicarbonate, 1.0 g/L glucose, 0.16 g/L potassium phosphate monobasic, 0.14 g/L magnesium sulfate (anhydr.), and 0.22 g/L calcium chloride (dihydr.))
Optimal tension was applied (0.2 g) to the tissues and the bath medium was maintained at 37° C. and bubbled with a mixture of 95% O2/5% CO2. […] Changes in arterial smooth muscle tension were recorded isometrically using a force-displacement transducer (Radnoti), and a AcqKnowledge ACK100 Version 3.2 (BIOPAC Systems, Inc., Santa Barbara, Calif.)
In siliconized glass tubes, peptides were dissolved in dionized water at a concentration of 1 μg/1 μL (stock solution) and then diluted 1:10 with sterile BSA-saline solution (0.1% BSA, fraction V, Sigma, St. Louis in 0.9% NaCl). […] Peptide-induced changes in tension of the aorta rings were recorded by force-displacement transducers and processed by the computer system BIOPAC Inc., as described above. […]

Substance: Asp-c[Cys-Phe-Trp-Lys-Tyr-Cys]-Val-OH (DCFWKYCV-OH; disulfide 2-7 (inferred))
- potency in binding to rat aorta tissue relative to full human and fish U-II (U-II receptors): greater potency than the full human and fish U-II sequences
- potency in inducing rat aorta contraction relative to full human and fish U-II (rat aorta contraction): greater potency than the full human and fish U-II sequences; also recorded: more potent than the full human and fish sequences
